# Measurements as given in patent publication US12661396B2, “Selective targeting of the TREML1/MD2 interaction by small peptide or protein and its use for vaccine adjuvants” (Ascendo Biotechnology, Inc., priority 2020, dated 2026).
# B1: mTREML1 ECD: mouse TREML1 extracellular domain, SEQ ID NO:2; recombinant, E. coli, polyhistidine tag at the N-terminus (protein, listed as Mus musculus)
# chain: DSHPEVLQAPVGSSILVQCHYRLQDVRALKVWCQFLQEGCHPLVTSAVDRRAPGNGRIFLTDLGGGLLQVEMVTLQEEDTGEYGCVVEGAAGPQTLHRVSLLVLPPVPGPREGEEAEDEKETYRIGTGSLLEDPSLDPSASAGPHEFRRRENSIP
# modifications: N-terminal polyhistidine tag
# notes: recombinant, E. coli, polyhistidine tag at the N-terminus
# Columns and labels:
# [1] = tested on: Human peripheral blood mononuclear cells (PBMCs); assay: TLR agonist-induced TNF-α secretion in human PBMCs with or without TREML1 ECD; type: cell-based; conditions: human PBMCs, 18 hr; FIG. 7A
# Description: Human peripheral blood samples from healthy volunteer donors were collected by venipuncture bled into ACD vacutainer tubes. Human peripheral blood mononuclear cells (PBMCs), which were separated from whole blood using Ficoll-Paque Plus (GE17-1440-03) according to the manufacturer's instructions. Human peripheral blood mononuclear cells (PBMCs) were pretreated with or without […]1 (10 ug/ml, 5 ug/ml and 1 ug/ml) and incubated for 30 min at 37° C. with 5% CO2. After treatments, cells were stimulated with TLR agonist, including R848 (InvivoGen #tlrl-r848) and ODN2395 (InvivoGen #tlrl-2395), and incubated at 37° C. with 5% CO2 for 18 hr. Supernatants of cell culture medium were collected for TNF-α measurements. Cell supernatants and plasma samples were harvested and stored at -80° C. Human TNFα concentrations were detected using TNF-α DuoSet ELISA kit (R&D #DY210) according to manufacturer's instructions. Signals were developed using 3,3',5,5'-tetramethylbenzidine and the absorbance of 450 nm was detected with a microplate reader.
# MD2 = target: T1, MD2 (Homo sapiens, UniProt Q9Y6Y9); assay: Solid phase binding assay, hMD2 to immobilized TREML1 stalk; conditions: stalk coated 5 ug/ml; anti-His tag antibody-HRP detection; FIG. 3A
# T1 sequence (Q9Y6Y9 19-160): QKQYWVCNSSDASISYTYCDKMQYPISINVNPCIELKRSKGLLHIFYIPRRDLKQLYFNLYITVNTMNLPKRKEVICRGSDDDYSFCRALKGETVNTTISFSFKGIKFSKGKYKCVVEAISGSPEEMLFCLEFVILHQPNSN
# Description: (§1) For TREML1 or mTREML1 stalk binding to human or mouse MD2 protein, TREML1 stalk or mTREML1 stalk (5 ug/ml in PBS) was coated separately on a 96-well plate. Recombinant hTLR4, hMD2, hCD14, or mMD2 was each serially diluted and added to the plates. Anti-His tag antibody-HRP was used as a detection antibody to detect the protein binding.
# TLR4 = TLR4 (Homo sapiens, UniProt O00206); assay: Solid phase binding assay, hTLR4 to immobilized TREML1 stalk; conditions: stalk coated 5 ug/ml; FIGS. 3A and 3B
# Sequence of TLR4 (O00206 24-839): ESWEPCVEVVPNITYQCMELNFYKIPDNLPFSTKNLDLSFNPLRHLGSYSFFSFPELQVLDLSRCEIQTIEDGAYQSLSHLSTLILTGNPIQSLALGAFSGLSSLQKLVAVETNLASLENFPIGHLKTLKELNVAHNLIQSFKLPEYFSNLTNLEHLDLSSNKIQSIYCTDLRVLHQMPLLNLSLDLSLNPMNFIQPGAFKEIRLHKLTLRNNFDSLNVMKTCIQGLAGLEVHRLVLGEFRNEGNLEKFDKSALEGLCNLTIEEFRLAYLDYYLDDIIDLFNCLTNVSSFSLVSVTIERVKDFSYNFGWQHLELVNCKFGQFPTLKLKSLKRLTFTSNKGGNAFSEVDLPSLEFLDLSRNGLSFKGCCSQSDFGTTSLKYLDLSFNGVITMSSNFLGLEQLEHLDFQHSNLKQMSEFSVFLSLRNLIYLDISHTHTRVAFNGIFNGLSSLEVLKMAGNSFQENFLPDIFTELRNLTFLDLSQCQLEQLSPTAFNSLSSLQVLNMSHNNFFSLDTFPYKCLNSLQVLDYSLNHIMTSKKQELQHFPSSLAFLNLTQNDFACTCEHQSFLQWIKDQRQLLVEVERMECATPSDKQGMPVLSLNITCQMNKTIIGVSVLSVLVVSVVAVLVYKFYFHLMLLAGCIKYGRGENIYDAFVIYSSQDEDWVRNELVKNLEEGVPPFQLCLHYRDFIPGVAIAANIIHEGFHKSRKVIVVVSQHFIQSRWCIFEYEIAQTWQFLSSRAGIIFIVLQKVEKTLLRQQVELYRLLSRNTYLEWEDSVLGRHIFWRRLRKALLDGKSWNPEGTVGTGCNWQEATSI
# Description: as §1
# CD14 = target: T2, CD14 (Homo sapiens, UniProt P08571); assay: Solid phase binding assay, hCD14 to immobilized TREML1 stalk; conditions: stalk coated 5 ug/ml; FIGS. 3A and 3B
# T2 sequence (P08571 20-345): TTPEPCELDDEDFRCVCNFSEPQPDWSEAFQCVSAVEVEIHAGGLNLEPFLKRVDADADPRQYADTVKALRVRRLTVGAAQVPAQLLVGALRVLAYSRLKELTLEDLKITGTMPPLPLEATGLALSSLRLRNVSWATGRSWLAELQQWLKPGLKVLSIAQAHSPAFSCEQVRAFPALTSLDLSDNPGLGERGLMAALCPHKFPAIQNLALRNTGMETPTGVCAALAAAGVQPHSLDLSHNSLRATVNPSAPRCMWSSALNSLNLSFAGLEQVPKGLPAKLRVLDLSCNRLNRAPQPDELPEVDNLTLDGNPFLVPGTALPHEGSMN
# Description: as §1
# BMDCs = assay: Mouse bone marrow derived dendritic cell maturation (flow cytometry); type: cell-based; conditions: FIG. 8
# Description: Femurs and tibiae were harvested from female C57BL/6 mice and extra muscle tissues were removed. Bones were disinfected in 70% ethanol, then rinsed with RPMI-1640 medium, and both ends were cut to flush out the bone marrow with RPMI-1640 medium using 26 G needle syringes. To disperse cell clumps, bone marrow suspension was pipetted in-and-out several times and washed twice with RPMI-1640 medium by centrifugation. […] At day 0, after cell counting, the leukocytes were seeded at a concentration of 2×10^6 cells/10 ml R10 medium containing 200 U/ml rmGM-CSF in sterile […] Petri dish and incubated at 37° C. with 5% CO2. At day 3, another 10 ml of R10 medium containing 200 U/ml rmGM-CSF was added. At days 6, one half of the supernatant was taken out and centrifuged to collect cell pellet, which was resuspend in original plate with 10 ml of R10 medium containing 200 U/ml GM-CSF. At day 8, non-adherent cells were collected by gentle pipetting and centrifuged at 300 g for 5 min. To obtain purer dendritic cells, the population of macrophages (F4/80^high) was removed with Anti-F4/80 MicroBeads UltraPure (130-110-443, Miltenyi Biotec, Bergisch Gladbach, Germany) following the manufacturer's instructions. Briefly, cell pellet was resuspended and mixed well in MACS buffer with Anti-F4/80 MicroBeads UltraPure. This mixture was incubated for 15 min in the dark in 4° C. After washing cells with MACS buffer, cells were resuspended in MACS buffer, filtered with 30 μm nylon mesh, and added to the MACS buffer rinsed column to separate F4/80^+ cells. Unlabeled cells were collected and washed with R10 medium. To freeze the cells, cell pellet was counted and resuspended at a concentration 1×10^7 cell in 2 ml CELLBANKER2 (#11891, ZENOAQ) per cryopreservation vial and stored at −80 degree Celsius.
# BMDCs were thawed for the DC maturation experiments. These cells were seeded at 1×10^6 cells/2 ml in R10 medium containing 200 U/ml rmGM-CSF in wells of a 6-well tissue culture dish and cultured to recover the cell viability at 37° C. with 5% CO2. After 6 hr, BMDCs were treated with various fragments of mTREML1 protein and cultured in 37° C. with 5% CO2. On the next day, resuspended cells were collected and analyzed by flow cytometry.
# Cells were centrifuged at 1800 rpm for 3 min in PBS containing 1% FBS and 0.1% sodium azide (PBSBA), and then divided at a concentration of 1×10^5 cells/100 ul PBSBA in flow tube. Before staining the surface marker of DC, cells were treated with mouse Fc blocker to avoid antibody non-specific binding at room temperature for 30 min. […] After PBSBA washing, samples were analyzed using the CytoFlex flow cytometer with the CytExpert software.
molecule,measurement,setting,value
"CCOCc1nc2c(N)nc3ccccc3c2n1CC(C)(C)O [R848, 4-amino-2-(ethoxymethyl)-α,α-dimethyl-1H-imidazo[4,5-c]quinoline-1-ethanol, reference compound]",TNF-α secretion induced by TLR agonist alone,[1],can induce TNF-α secretion
"TREML1 stalk: human TREML1 stalk polypeptide, SEQ ID NO:3, ILPPEEEEETHKIGSLAENAFSDPAGSANPLEPSQDEKSIP, chemically synthesized (listed as Homo sapiens)",MD2 binding to immobilized TREML1 stalk,MD2,binds with TREML1 stalk in a concentration-dependent manner
same,TLR4 binding to immobilized TREML1 stalk,TLR4,do not bind TREML1 stalk
same,CD14 binding to immobilized TREML1 stalk,CD14,do not bind TREML1 stalk
B1,dendritic cell maturation effect compared with TNF-α,BMDCs,significantly stronger than those of TNF-α
same,"dendritic cell maturation (DC maturation markers CD40, CD86, CD80, MHC II)",BMDCs; analyzed the next day,can trigger dendritic cell maturation
